How the values were obtained:
[1] = biological target: full-length recombinant H1 HA (A/New Caledonia/20/1999) on PER.C6 cells (influenza A virus (H1N1)); assay: FACS, IgG 5 µg/ml, HA-expressing PER.C6 cells; untransfected MFI 4
[2] = biological target: full-length recombinant H7 HA (A/Netherlands/219/2003) on PER.C6 cells (influenza A virus (H7N7)); assay: as above
[3] = biological target: full-length recombinant H3 HA (A/Wisconsin/67/2005) on PER.C6 cells (influenza A virus (H3N2)); assay: as above
[4] = biological target: recombinant H3 HA (A/Wisconsin/67/2005) (influenza A virus (H3N2)); assay: BLI (Octet RED), biotinylated HA on streptavidin sensor, 1:1 model
[5] = biological target: H3 HA antigen (A/Brisbane/10/2007) (influenza A virus (H3)); assay: as above

Row | Substance | MFI [1] [MFI] | MFI [2] [MFI] | MFI [3] [MFI] | Kd [4] [nM] | koff [4] [s⁻¹] | kon [4] [M⁻¹ s⁻¹] | Kd [5] [nM] | koff [5] [s⁻¹] | kon [5] [M⁻¹ s⁻¹]
1 | CR8020 (antibody) | 3 | 140 | 657 | – | – | – | – | – | –
2 | CR8043 (antibody) | 4 | 11 | 646 | – | – | – | – | – | –
3 | Fab fragment of CR8020 | – | – | – | 11.2 | 0.00208 | 203000 | 8.9 | 0.00143 | 181000
4 | Fab fragment of CR8043 | – | – | – | 0.3 | 9.86e-05 | 408000 | 0.3 | 8.69e-05 | 312000

— patent publication US20130309248A1
